This is an account of results in patent publication US20230038638A1, “COMPLEMENT FACTOR I-RELATED COMPOSITIONS AND METHODS” (published 2023).

Numbering of substitutions follows the chain as printed.

The target of test [1] is T1, human C4b (human) (UniProt P0C0L4).
T1 sequence: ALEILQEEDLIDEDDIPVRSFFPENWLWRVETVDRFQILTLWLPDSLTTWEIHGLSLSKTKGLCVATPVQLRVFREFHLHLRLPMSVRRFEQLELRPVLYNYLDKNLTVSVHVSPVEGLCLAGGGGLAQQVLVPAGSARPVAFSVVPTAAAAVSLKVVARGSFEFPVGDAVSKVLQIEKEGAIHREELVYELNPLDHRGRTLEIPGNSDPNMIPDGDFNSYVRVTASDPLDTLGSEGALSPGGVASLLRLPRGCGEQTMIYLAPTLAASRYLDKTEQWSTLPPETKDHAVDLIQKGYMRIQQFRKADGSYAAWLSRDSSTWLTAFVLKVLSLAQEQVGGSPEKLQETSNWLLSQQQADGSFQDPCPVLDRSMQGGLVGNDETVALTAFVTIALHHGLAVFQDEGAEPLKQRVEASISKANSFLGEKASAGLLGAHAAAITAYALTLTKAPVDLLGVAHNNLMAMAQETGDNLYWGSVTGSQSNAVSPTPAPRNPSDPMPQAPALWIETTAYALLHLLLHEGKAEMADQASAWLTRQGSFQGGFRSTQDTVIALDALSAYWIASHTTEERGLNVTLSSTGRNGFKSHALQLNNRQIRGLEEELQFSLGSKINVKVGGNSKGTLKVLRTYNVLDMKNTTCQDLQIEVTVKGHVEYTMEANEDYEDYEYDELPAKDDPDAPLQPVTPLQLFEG

Test [2] addresses soluble human C3b (human) (UniProt P01024).
The target of test [3] is T2, human C4b (human) (UniProt P0C0L5).
T2 sequence: T1 sequence with A151T, D317G, P364L, C365S, L368I, D369H, N420S, V451A, L454R, S530A

The target of test [4] is T1, human C4b (human). This is another data set of the same source.
Test [5] addresses soluble human C3b (human) (UniProt P01024). This is another data set of the same source.
Test [6] deals with T2, human C4b (human). This is another data set of the same source.

Substance “CFI-HSA variant D425K; E457G; E461Q; N531G (enzyme)” had a C4c EC50 (nM) with human C4b (human) [1] of 6 nM. In test [2], this substance gave an iC3b EC50 of 2.5 nM. This substance also came in with a C4b Screen Ref Fold (fold relative to CFI-HSA wild type) with human C4b (human) [3] of 3.28. Moreover, in the test with human C4b (human) [4], the C4b Screen Ref Fold (fold of CFI-HSA wild type) worked out at 4.26. Moreover, in test [5], the iC3b Screen Ref Fold (fold of CFI-HSA wild type) was found to be 2.07 and the iC3b Screen Ref Fold (fold relative to CFI-HSA wild type) amounted to 0.09.
Turning to CFI-HSA variant D425K; E530F (enzyme), in the test with human C4b (human) [6], the C4c EC50 was greater than 1000 nM. For the same substance, the iC3b EC50 in test [2] amounted to 5.8 nM. In the test with human C4b (human) [4], the C4b Screen Ref Fold (fold of CFI-HSA wild type) was found to be 0.08. Moreover, the iC3b Screen Ref Fold (fold of CFI-HSA wild type) in test [5] amounted to 2.17.
For “CFI-HSA variant D425K; E530F; E457G; E461Q; N531G (enzyme)”, in that order: 6.4 nM, 3.4 nM, 4.4 and 1.08.
In the same order, the values of CFI-HSA variant D425K; P558S (enzyme) are 153 nM, 7 nM, 0.77 and 2.11.
In the same order, the values of CFI-HSA variant D425K; Y408M (enzyme) are greater than 1000 nM, 9.4 nM, 0.19 and 1.88.
“CFI-HSA variant D425K; Y408M; F537K (enzyme)”: the C4c EC50 in the test with human C4b (human) [6] was greater than 1000 nM. Further, the iC3b EC50 in test [2] is 10.8 nM. Further, the C4b Screen Ref Fold (fold of CFI-HSA wild type) with human C4b (human) [4] amounted to 0.09. In test [5], the iC3b Screen Ref Fold (fold of CFI-HSA wild type) was 1.52.
For “CFI-HSA variant D425K; Y408M; K504R (enzyme)”, in that order: greater than 1000 nM, 14.6 nM, 0.1 and 1.57.
In the same order, the values of “CFI-HSA variant D425R; E530F; E457G; E461Q; N531G (enzyme)” are 6.2 nM, 3.2 nM, 4.48 and 0.99.
In the case of “CFI-HSA variant D425R; E530F; P558G; E457G; E461Q; N531G (enzyme)”, the C4c EC50 in the test with human C4b (human) [6] came out at 5 nM. Besides, in the test with human C4b (human) [4], the C4b Screen Ref Fold (fold of CFI-HSA wild type) stood at 4.13. Besides, the iC3b Screen Ref Fold (fold of CFI-HSA wild type) in test [5] is 0.87.
In the test with human C4b (human) [6], “CFI-HSA variant D425R; P558S; E457G; E461Q; N531G (enzyme)” displayed a C4c EC50 of 4.6 nM. Besides, the iC3b EC50 in test [2] stood at 4 nM. In addition, in the test with human C4b (human) [4], the C4b Screen Ref Fold (fold of CFI-HSA wild type) amounted to 4.41. In addition, the iC3b Screen Ref Fold (fold of CFI-HSA wild type) in test [5] was determined as 1.29.
“CFI-HSA variant E530F; P558S; E457G; E461Q; N531G (enzyme)”: the C4c EC50 with human C4b (human) [6] came to 9.1 nM. The iC3b EC50 in test [2] was determined as 4.8 nM.
Turning to “CFI-HSA variant K504R; D425R; E530F; E457G; E461Q; N531G (enzyme)”, the C4c EC50 with human C4b (human) [6] worked out at 7.4 nM. Moreover, the C4b Screen Ref Fold (fold of CFI-HSA wild type) with human C4b (human) [4] was 4.2. For the same substance, in test [5], the iC3b Screen Ref Fold (fold of CFI-HSA wild type) was determined as 1.18.
In the same order, the values of “CFI-HSA variant K504R; D425R; P558G; E457G; E461Q; N531G (enzyme)” are 4.8 nM, 4.14 and 1.58.
In the same order, the values of “CFI-HSA variant K504R; E530F; P558G; E457G; E461Q; N531G (enzyme)” are 8.2 nM, 3.96 and 1.77.
The substance “CFI-HSA variant P558G; E457G; E461Q; N531G (enzyme)” came in with a C4c EC50 (nM) with human C4b (human) [1] of 7.1 nM. This substance had an iC3b EC50 in test [2] of 5 nM. Moreover, the C4b Screen Ref Fold (fold of CFI-HSA wild type) with human C4b (human) [4] turned out to be 3.97. Besides, in test [5], the iC3b Screen Ref Fold (fold of CFI-HSA wild type) was 1.87.
In the same order, the values of “CFI-HSA variant P558S; E457G; E461Q; N531G (enzyme)” are 7.2 nM, 4.3 nM, 4.21 and 1.89.
In turn, CFI-HSA variant R456N (enzyme) yielded a C4c EC50 (nM) with human C4b (human) [1] of 920 nM. In addition, in test [2], the iC3b EC50 was found to be 60.5 nM. Besides, the C4b Screen Ref Fold (fold of reference) in the test with human C4b (human) [4] is 0.19. In test [5], the iC3b Screen Ref Fold (fold of reference) is 0.56.
CFI-HSA variant R557K; N531M (enzyme) had a C4c EC50 with human C4b (human) [6] of 124 nM. Also, the C4b Screen Ref Fold (fold of CFI-HSA wild type) with human C4b (human) [4] was determined as 2.93. In addition, in test [5], the iC3b Screen Ref Fold (fold of CFI-HSA wild type) worked out at 0.41.
As for CFI-HSA variant T377G (enzyme), in the test with human C4b (human) [1], the C4c EC50 (nM) worked out at 147 nM. This substance also gave an iC3b EC50 in test [2] of 16.4 nM. In the test with human C4b (human) [4], the C4b Screen Ref Fold (fold of reference) was determined as 6.1. For the same substance, the iC3b Screen Ref Fold (fold of reference) in test [5] was found to be 1.01.
“CFI-HSA variant T377G; E416A; K504H (enzyme)” registered a C4c EC50 (nM) in the test with human C4b (human) [1] of 47.8 nM. The same substance registered an iC3b EC50 in test [2] of 12 nM. Besides, the C4b Screen Ref Fold (fold of CFI-HSA wild type) with human C4b (human) [4] was 3.37. In addition, in test [5], the iC3b Screen Ref Fold (fold of CFI-HSA wild type) came to 0.77.
In the case of “CFI-HSA variant T377G; E457G; E461Q; F464Y; N531G (enzyme)”, in the test with human C4b (human) [1], the C4c EC50 (nM) was 23.3 nM. In test [2], this substance showed an iC3b EC50 of 3.4 nM. In addition, in the test with human C4b (human) [4], the C4b Screen Ref Fold (fold of CFI-HSA wild type) came out at 4.08. Moreover, in test [5], the iC3b Screen Ref Fold (fold of CFI-HSA wild type) was 2.12.
In the test with human C4b (human) [1], “CFI-HSA variant T377G; E457G; E461Q; R462K; F464Y; N531G (enzyme)” returned a C4c EC50 (nM) of 3.5 nM. For the same substance, the iC3b EC50 in test [2] is 4.2 nM. In the test with human C4b (human) [4], the C4b Screen Ref Fold (fold of CFI-HSA wild type) stood at 4.5. In test [5], the iC3b Screen Ref Fold (fold of CFI-HSA wild type) was found to be 2.05.
In the same order, the values of CFI-HSA variant T377G; K504H (enzyme) are 50.1 nM, 15.7 nM, 3.01 and 0.95.
For “CFI-HSA variant T377G; Y408L; E457G; E461Q; R462K; N531G (enzyme)”, in that order: 6.3 nM, 6.6 nM, 3.44 and 1.06.
In the test with human C4b (human) [1], CFI-HSA variant W381G (enzyme) gave a C4c EC50 greater than 1000 nM. Moreover, the iC3b EC50 in test [2] is greater than 500 nM. The C4b Screen Ref Fold (fold of reference) with human C4b (human) [4] is 0.32. Also, in test [5], the iC3b Screen Ref Fold (fold of reference) is 0.
On to CFI-HSA variant Y403F (enzyme), for which the C4c EC50 (nM) with human C4b (human) [1] came out at 338 nM. The same substance returned an iC3b EC50 in test [2] of 47.8 nM. Also, the C4b Screen Ref Fold (fold of reference) in the test with human C4b (human) [4] came to 3.55. Besides, in test [5], the iC3b Screen Ref Fold (fold of reference) amounted to 0.41.
Substance “CFI-HSA variant Y408F; E457G; E461Q; R462K; E530Y; N531G; P558S (enzyme)” gave a C4c EC50 (nM) in the test with human C4b (human) [1] of 20.4 nM. The iC3b EC50 in test [2] is 5.1 nM. Moreover, in the test with human C4b (human) [4], the C4b Screen Ref Fold (fold of CFI-HSA wild type) came to 4.41. For the same substance, in test [5], the iC3b Screen Ref Fold (fold of CFI-HSA wild type) was 2.21.
In the case of CFI-HSA variant Y408M (enzyme), the C4c EC50 (nM) in the test with human C4b (human) [1] turned out to be 930 nM. This substance also had an iC3b EC50 in test [2] of 29.1 nM. In the test with human C4b (human) [4], the C4b Screen Ref Fold (fold of reference) came to 0.17. For the same substance, the iC3b Screen Ref Fold (fold of reference) in test [5] was determined as 1.21.
In the same order, the values of CFI-HSA variant Y408Q (enzyme) are 530 nM, 49.1 nM, 0.05 and 0.84.
Substance CFI-HSA variant Y563H (enzyme) had a C4c EC50 (nM) in the test with human C4b (human) [1] of 855 nM. In test [2], this substance yielded an iC3b EC50 of 24.6 nM. Also, the C4b Screen Ref Fold (fold of CFI-HSA wild type) with human C4b (human) [3] was determined as 0.65. For the same substance, the C4b Screen Ref Fold (fold of reference) with human C4b (human) [4] worked out at 1.03. Also, in test [5], the iC3b Screen Ref Fold (fold of CFI-HSA wild type) came to 0.73 and the iC3b Screen Ref Fold (fold of reference) was 1.4.
